Source: patent publication US8597645

T1: p120^CTN (immunoprecipitated), O60716
T1 chain: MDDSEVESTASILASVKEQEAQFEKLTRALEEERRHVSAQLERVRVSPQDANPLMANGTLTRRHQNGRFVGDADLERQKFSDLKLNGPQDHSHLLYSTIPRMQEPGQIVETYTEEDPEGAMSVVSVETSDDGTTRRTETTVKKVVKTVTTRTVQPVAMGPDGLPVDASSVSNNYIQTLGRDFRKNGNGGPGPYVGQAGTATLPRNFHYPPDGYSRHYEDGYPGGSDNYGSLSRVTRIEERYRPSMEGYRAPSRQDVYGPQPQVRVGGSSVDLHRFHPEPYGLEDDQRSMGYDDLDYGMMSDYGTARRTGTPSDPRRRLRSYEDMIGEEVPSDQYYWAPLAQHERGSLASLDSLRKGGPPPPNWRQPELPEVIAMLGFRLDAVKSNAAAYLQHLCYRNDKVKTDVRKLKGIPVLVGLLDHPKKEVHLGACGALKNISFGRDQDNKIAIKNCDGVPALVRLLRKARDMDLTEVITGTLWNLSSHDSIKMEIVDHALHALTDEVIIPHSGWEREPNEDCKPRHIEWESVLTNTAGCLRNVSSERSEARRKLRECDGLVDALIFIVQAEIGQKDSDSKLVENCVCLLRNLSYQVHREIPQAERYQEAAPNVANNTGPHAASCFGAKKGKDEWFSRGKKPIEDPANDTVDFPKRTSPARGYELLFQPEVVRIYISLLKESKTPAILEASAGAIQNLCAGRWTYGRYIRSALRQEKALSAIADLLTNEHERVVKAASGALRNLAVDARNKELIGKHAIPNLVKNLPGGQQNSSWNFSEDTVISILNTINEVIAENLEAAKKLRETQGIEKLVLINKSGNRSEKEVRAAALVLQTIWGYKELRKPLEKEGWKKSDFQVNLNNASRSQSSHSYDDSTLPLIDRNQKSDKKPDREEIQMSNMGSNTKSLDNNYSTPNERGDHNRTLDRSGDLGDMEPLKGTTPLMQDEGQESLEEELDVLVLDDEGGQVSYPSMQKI

T2: β-catenin (immunoprecipitated), P35222
T2 chain: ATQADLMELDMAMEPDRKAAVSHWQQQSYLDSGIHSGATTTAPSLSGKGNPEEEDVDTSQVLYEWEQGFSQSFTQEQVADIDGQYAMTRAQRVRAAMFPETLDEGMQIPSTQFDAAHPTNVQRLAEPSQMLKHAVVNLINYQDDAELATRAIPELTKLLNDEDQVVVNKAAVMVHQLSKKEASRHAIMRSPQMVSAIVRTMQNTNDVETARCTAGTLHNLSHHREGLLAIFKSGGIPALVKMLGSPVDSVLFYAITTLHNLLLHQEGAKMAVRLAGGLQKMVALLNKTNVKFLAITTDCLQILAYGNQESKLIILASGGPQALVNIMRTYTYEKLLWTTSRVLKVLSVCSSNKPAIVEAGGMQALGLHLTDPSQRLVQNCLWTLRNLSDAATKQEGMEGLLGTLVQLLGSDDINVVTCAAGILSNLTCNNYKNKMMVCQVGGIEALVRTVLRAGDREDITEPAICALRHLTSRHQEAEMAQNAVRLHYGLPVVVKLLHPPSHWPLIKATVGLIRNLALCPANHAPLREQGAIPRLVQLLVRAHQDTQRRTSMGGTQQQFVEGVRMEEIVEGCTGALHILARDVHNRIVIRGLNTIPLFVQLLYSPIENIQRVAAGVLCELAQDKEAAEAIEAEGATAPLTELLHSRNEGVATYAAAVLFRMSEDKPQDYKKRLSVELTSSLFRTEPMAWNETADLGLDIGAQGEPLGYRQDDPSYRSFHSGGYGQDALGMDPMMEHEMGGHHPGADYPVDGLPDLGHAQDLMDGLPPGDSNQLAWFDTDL

T3: Cell permeable caspase inhibitor containing the sequence IETD, P08620
T3 chain: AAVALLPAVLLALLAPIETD


What was measured:
[1] = biological target: T1, p120^CTN (immunoprecipitated), O60716
[2] = biological target: T2, β-catenin (immunoprecipitated), P35222
[3] = biological target: T3, Cell permeable caspase inhibitor …

Protein | In vitro cleavage of the immunoprecipitated protein [1] | In vitro cleavage of the immunoprecipitated protein [2] | Proteolytic processing of caspase-8 (immunoblot) [3]
Recombinant caspase-8 (protein) SESQTLDKVYQMKSKPRGYCLIINNHNFAKAREKVPKLHSIRDRNGTHLDAGALTTTFEELHFEIKPHDDCTVEQIYEILKIYQLMDHSNMDCFICCILSHGDKGIIYGTDGQEAPIYELTSQFTGLKCPSLAGKPKVFFIQACQGDNYQKGIPVETDSEEQPYLEMDLSSPQTRYIPDEADFLLGMATVNNCVSYRNPAEGTWYIQSLCQSLRERCPRGDDILTILTEVNYEVSNKDDKKNMGKQMPQPTFTLRKKLVFPSD | Cleavage of immunoprecipitated β-catenin and p120^CTN by recombinant caspase-8 in vitro also was not demonstrated | Cleavage of immunoprecipitated β-catenin and p120^CTN by recombinant caspase-8 in vitro also was not demonstrated | –
Caspase-8 (endogenous, in melanocytes and melanoma cells) (protein) MDFSRNLYDIGEQLDSEDLASLKFLSLDYIPQRKQEPIKDALMLFQRLQEKRMLEESNLSFLKELLFRINRLDLLITYLNTRKEEMERELQTPGRAQISAYRVMLYQISEEVSRSELRSFKFLLQEEISKCKLDDDMNLLDIFIEMEKRVILGEGKLDILKRVCAQINKSLLKIINDYEEFSKERSSSLEGSPDEFSNGEELCGVMTISDSPREQDSESQTLDKVYQMKSKPRGYCLIINNHNFAKAREKVPKLHSIRDRNGTHLDAGALTTTFEELHFEIKPHDDCTVEQIYEILKIYQLMDHSNMDCFICCILSHGDKGIIYGTDGQEAPIYELTSQFTGLKCPSLAGKPKVFFIQACQGDNYQKGIPVETDSEEQPYLEMDLSSPQTRYIPDEADFLLGMATVNNCVSYRNPAEGTWYIQSLCQSLRERCPRGDDILTILTEVNYEVSNKDDKKNMGKQMPQPTFTLRKKLVFPSD | – | – | Treatment of cells with a cell permeable inhibitor of caspase-8 prevented its proteolytic processing
